According to US20250223332A1 (BOARD OF TRUSTEES OF THE UNIVERSITY OF ILLINOIS, published 2025):

Key:
[1] = target: T1, hDLL4-Fc (Sino Biologics) (human, UniProt Q9NR61 27-524, limits assumed); experiment: SPR (Biacore T200), hDLL4-Fc on the chip, decoy as analyte, KD = kd/ka
T1 construct: Bought from Sino Biologics; also called Recombinant Fc-tagged hDLL4; recombinant hDLL4; not shown: Fc tag of the bought protein
Experimental: (§1) Affinity Analysis. The binding kinetics of N1₁₀₋₁₄Fc and N4₁₀₋₁₄Fc were analyzed using a Surface Plasmon Resonance (SPR)-based assay on the BIACORE™ T200 system (GE Healthcare). Human IgG Fc (Sino Biologics) was first immobilized on a CM5 biosensor chip. Subsequently, an appropriate concentration of hDLL4-Fc (Sino Biologics) and hJAG1-Fc (Sino Biologics) was captured to the surface at a Response Unit (RU) of up to 20,000. Various concentrations of N1₁₀₋₁₄Fc and N4₁₀₋₁₄Fc were then passed through the chip with running buffer (1×HBS-N (10 mM HEPES, 150 mM NaCl) with 0.005% polysorbate 20, 1 mM CaCl₂), 2 mM MgCl₂, PH 7.4). After each reaction, the captured ligands and analyte were removed by regeneration buffer (1×HBS-N (10 mM HEPES, 150 mM NaCl) with 0.005% polysorbate 20, 1 mM CaCl₂), 2 mM MgCl₂, pH 7.4). The whole reaction was conducted at 25° C. and a flow rate of 25 μl/min. Sensorgrams of each concentration were obtained and analyzed by BIACORE™ evaluation software (GE Healthcare). The equilibrium constant KD was calculated from the ratio of the dissociation rate constant kd to the association rate constant kₐ (kd/kₐ).
Surface plasmon resonance (SPR) spectroscopy was used to characterize and quantify the interactions between these proteins. […]

[2] = target: T1, hDLL4-Fc (Sino Biologics); experiment: SPR (Biacore T200), hDLL4-Fc on the chip, decoy as analyte, multi-cycle kinetics, 25 C
Experimental: as §1
Surface plasmon resonance (SPR) spectroscopy was used to characterize and quantify the interactions between these proteins. Recombinant Fc-tagged hDLL4 and hJAG1 were immobilized on the sensor chip using amine coupling and multi-cycle kinetic experiments were performed using increasing concentrations of either N1₁₀₋₁₄Fc or N4₁₀₋₁₄Fc. As a control, recombinant IgG Fc was immobilized on the sensor chip.

T1 sequence (Q9NR61 27-524 limits assumed): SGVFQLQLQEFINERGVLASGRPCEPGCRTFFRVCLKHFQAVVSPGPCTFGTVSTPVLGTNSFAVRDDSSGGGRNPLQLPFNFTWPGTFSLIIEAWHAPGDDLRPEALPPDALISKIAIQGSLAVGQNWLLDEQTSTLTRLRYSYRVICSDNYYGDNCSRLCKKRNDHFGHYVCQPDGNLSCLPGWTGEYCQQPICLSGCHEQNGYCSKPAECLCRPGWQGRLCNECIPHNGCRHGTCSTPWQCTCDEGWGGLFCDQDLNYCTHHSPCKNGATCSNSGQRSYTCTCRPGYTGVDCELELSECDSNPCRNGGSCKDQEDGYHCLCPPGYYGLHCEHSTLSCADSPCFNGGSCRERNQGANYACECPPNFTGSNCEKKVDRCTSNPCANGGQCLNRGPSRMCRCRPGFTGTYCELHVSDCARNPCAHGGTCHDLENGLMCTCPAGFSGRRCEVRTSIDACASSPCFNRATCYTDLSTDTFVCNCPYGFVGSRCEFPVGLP

| Binder | Kd [1] | koff [2] | kon [2] |
| --- | --- | --- | --- |
| N410-14Fc (human Notch4 EGF-like repeats 10-14 fused to human IgG Fc) (Fc fusion, Produced in HEK293 cells; also called Notch4 peptibody; Notch4 decoy; not shown: human IgG Fc) LEDMCLSQPCHGDAQCSTNPLTGSTLCLCQPGYSGPTCHQDLDECLMAQQGPSPCEHGGSCLNTPGSFNCLCPPGYTGSRCEADHNECLSQPCHPGSTCLDLLATFHCLCPPGLEGQLCEVETNECASAPCLNHADCHDLLNGFQCICLPGFSGTRCEEDIDECRSSPCANGGQCQDQPGAFHCKCLPGFEGPRCQ | 962 nM | 0.0099 s⁻¹ | 10300 M⁻¹ s⁻¹ |
| N110-14Fc (human Notch1 EGF-like repeats 10-14 fused to human IgG Fc) (Fc fusion, Produced in HEK293 cells; also called Notch1 peptibody; Notch1 decoy; not shown: human IgG Fc) ARGPRCISNPCNEGSNCDTNPVNGKAICTCPSGYTGPACSQDVDECSLGANPCEHAGKCINTLGSFECQCLQGYTGPRCEIDVNECVSNPCQNDATCLDQIGEFQCICMPGYEGVHCEVNTDECASSPCLHNGRCLDKINEFQCECPTGFTGHLCQYDVDECASTPCKNGAKCLDGPNTYTCVCTEGYTGTHCE | 605 nM | 0.019 s⁻¹ | 31500 M⁻¹ s⁻¹ |
